Assay results published in a protein production outcome set (Wang et al. 2014).

Assay: label from the status in PepcDB records
With “MAPCLENVACVNLSAMPPAPPSPQPVSHKQAATLCRQGRTCALKSGSNESGGSVTSTYTSYRLISQDIGKSLERVSKQPDVARETEYYREKIGSVKSIDDFMADTRLYNYALKAHGLEDMAYAKAFIRKVLTEGASDKNAFANKLSDNRYAELAKSLDFAGLGAAATATEAAKSGVIGNYARQTLEQEAGDDNNGVRLALYFERKAPTIKSGLDFLADDALAQVFRTTFNLPDAFAAADVDKQAALIEKSINIKDLQDPEKVGKLLERFTIMWEMQNPSTTYDPLAVFGSSSGYGISPDLLISINSLKLGGKLEHHHHHH” the protein production was “not failed”.
For “MAPDLSGTWYVLEGDPGEHLVVEALGERLSGIWTSRELAEAFLAHHPHLGMRVSALESRALKEAYLRALGMLQVEAVMVDYRPGTHRAQVARVKDLLEEVRRA”, the protein production was “not failed”.
With “MAPFTLYTHAGPGPNPVKVAMALEHLGLDYDCIPLAFGEGKGTVKDPEYTSKVNPNGRVPGLIDHENNDFTVFESAAILQYLAEKTIQYDTSGKLAGSTPEERATVNKWLAWQVSGLGPYQGQLVWFLAFHEGAHGEKPNGSVIARYQAEVERLRSVLEKHLASAENGFVALGRLTIADFAILPWLKISVLAGSALKSFEEYPAINAYIKKLDALPEVQAAYKKAVPPMQ” the protein production was “failed”.
In the case of “MAPLDSKSAGGEPGVWKSGRGRGRRLPKGRVYSDEALAAVRGVLGDRPRRRDLLIEFLHLIQDVYGHLSADHLAALAFEMKLGQAEVYETATFYAHFDVVKEGETPPPALTIRVCDSLSCALAGAEQLRAALEEGLDPGQVRVLRAPCMGRCDTAPVLELGHNHIDHATPEKVRAAIAAGDTHAHLPDYEGFDAYAAAGGYAVLKGLRAGGDWEAVQDSVLAAGLRGLGGAGFPSGRKWGFVRANPGPRYLAVNGDEGEPGTFKDRYYLERVPHLFLEGMLIAAWAVEAETCYIYMRDEYPAVLEILRREIAALEAAGIVAKGYIDLRRGAGAYICGEESAMIESIEGKRGLPRHRPPFVAQVGLFGRPTLVHNIETLHWVARVCREGPEVLNSIEKNGRKGLRSYSVSGRVARPGVHLLPAGSTIRDVIAAAGGMAAGHVFKAYQPGGPSSGLLPASMDDIPLDFDTLQPHGSFIGSAAVVVLSQQDSARDAALNMLRFFEDESCGQCTPCRAGCEKAVKLMQAEHWDQPLLEELCQVMADASICGLGQAAPNPIRLTMKHFAEEI”, the protein production was “failed”.
For “MAPLLSLCMIVKNEAHQLRRCLQSVQPWVDEIIIVDTGSTDGTIAIACEFTPHVHAVAWQGDFAAARNAALAQATGEWVFYIDADEELVVTDAHWQDQLTAPGAHAINQWSLLRREQSSDRNWSEFWNVRFGRRFPDLHFAGALHEQLCYREREAVVGELQGVYLIHHNQQSQEQFLAKIRDRNIPILETMVQQGDRRLQNLVCLGDHYAACGDSDRSQAWYEQALEEIASAVEQGILPRETTWLRHLLFWVSYRAFEAKDYETAQYYLSYGLRFFDRYPPLLYVAGLFVFELGLPRGALPYFHRCLDLFEAGSYDRTEPFDRQWMTTQPAYSLGYTYMTLQERDRAIAYFQKTLKFNPDYPPAQMYLEQLLRASANQGLEHHHHHH”, the protein production was “failed”.
With “MAPRTYASVLTTPRGPAPLALYCPEAPECPKLEAISNLSFQQITQQAGTSNDQGFEFENTYVEHRINQEIESFVDTHHQEPLRKAAAQFRAVMKQEYPDSTCFITGSYPAGVDIFSSDIDFTVKVPTLEGANPFLKLMQLRKELSCYYTIFSKAYVQKGNIPVLQLMHAETKVSIDVTIDNDTSKRNTQLLAFYSQLDTRFPLLCKAMKAWAASCGVEGASRGRLNSFSLCLMLIHYLQTVQVLLNIQEIFPELNGDIVVEDDNYMKRDLKIEILEKGAFDFNQNTSSLAVLFIGFMKYYSEFNFKWNWISIKHGNVLKKKWSKTRVPKNGMPKDCRFIVVADPLLEIPRNCAGTVRQQNYMERIQLEFREEYERILKRKTIFNLYQCNWSRKLRKEGMERDLQIMILQDELRKLRIANLPTEEEVPWGTVVDFTSPRTFSPTNQHPKVFWCSEQTTENQRRDNLWPELLRTNPYAIFENLI” the protein production was “not failed”.
With “MAPSHDRGRVDRALARVSHAFSILIAALTFALPGVATAGDVPTFAVDPAWPKPLPNNWILGQVGGITVDWQGHIWVIHRPRSLTDDEKGASLNPPRSKCCVSAPPVLEFDTDGNLLRSWGGLGEGYEWVGREHGIEVDERGFVWVGGNADNDNAILKFTLDGKFVAQIGKIAPSLGSNDTTQLGKPAETAIDKAANEIYVADGYGNRRVIVFDATTLAYKRHWGAYGNKPNDDKQGPYDPKAPVAQQFGNPVHCVKLANDGLVYVCDRINNRIQVFRKDGTFVKEFFFEKNTLGNGAVWDIAIWPDPKQTWLLSADGENNEIRVIRRDDGSVVGSFGRNGRNAGQFHWVHAMAIDAKGNVYTAEVDTGKRIQKFKLTSDALK” the protein production was “failed”.
